Positions count from the first letter of the chain named.
Experiments:
[1] = target: rat Protein C (rat) (UniProt P31394); assay: cell-based or functional assay
[2] = target: T1, human sTM variant F376L
T1 chain: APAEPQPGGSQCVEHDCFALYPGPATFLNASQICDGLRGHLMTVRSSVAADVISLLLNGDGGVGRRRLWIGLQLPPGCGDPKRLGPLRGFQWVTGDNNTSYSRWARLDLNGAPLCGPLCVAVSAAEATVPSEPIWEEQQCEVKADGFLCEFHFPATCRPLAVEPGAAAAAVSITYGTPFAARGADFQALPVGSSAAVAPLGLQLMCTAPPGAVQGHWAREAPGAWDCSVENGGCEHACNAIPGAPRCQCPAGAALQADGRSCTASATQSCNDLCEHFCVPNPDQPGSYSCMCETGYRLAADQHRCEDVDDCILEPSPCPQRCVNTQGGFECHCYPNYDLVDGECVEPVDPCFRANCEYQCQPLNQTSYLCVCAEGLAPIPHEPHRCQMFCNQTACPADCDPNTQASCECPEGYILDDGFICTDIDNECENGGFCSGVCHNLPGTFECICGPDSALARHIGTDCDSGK

[3] = target: T2, human soluble thrombomodulin (human sTM)
T2 chain: T1 chain with L376F

[4] = target: T3, rat soluble thrombomodulin (rat sTM)
T3 chain: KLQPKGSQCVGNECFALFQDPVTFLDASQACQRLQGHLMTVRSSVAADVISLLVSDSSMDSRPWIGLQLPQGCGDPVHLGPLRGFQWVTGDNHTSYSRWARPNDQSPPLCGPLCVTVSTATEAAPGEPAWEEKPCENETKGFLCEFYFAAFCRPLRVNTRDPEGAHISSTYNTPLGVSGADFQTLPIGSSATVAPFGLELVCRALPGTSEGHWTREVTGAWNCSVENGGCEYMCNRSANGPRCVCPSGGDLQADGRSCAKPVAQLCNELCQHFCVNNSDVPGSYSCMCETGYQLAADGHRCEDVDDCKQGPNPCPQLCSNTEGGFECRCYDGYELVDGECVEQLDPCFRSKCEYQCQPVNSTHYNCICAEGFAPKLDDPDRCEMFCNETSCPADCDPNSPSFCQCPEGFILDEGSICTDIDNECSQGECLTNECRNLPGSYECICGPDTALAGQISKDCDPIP

endogenous human thrombomodulin on human aortic endothelial cells (from UniProt P07204 19-575)
percent PC activation in the presence of human thrombin, against human thrombin with human Protein C as 100% (human aortic endothelial cells, chromogenic substrate) [1]: 12.8%

endogenous human thrombomodulin on human aortic endothelial cells (from UniProt P07204 19-575) (receptor)
percent PC activation in the presence of rat thrombin, against human thrombin with human Protein C as 100% (human aortic endothelial cells, chromogenic substrate) [1]: 0%

B1: rat Protein C (protein)
chain: ANSFLEEVRAGSLERECMEEICDFEEAQEIFQNVEDTLAFWIKYFDGDQCSTPPLDHQCDSPCCGHGTCIDGLGGFSCSCDKGWEGRFCQQEMGFQDCRVKNGGCYHYCLEETRGRRCRCAPGYELADDHMHCRPTVNFPCGKLWKRTDKKRKNFKRDIDPEDEELELGPRIVNGTLTKQGDSPWQAILLDSKKKLACGGVLIHTSWVLTAAHCLESSKKLTVRLGEYDLRRRDPWELDLDIKEVLVHPNYTRSNSDNDIALLRLSQPATLSKTIVPICLPNSGLAQELSQAGQETVVTGWGYQSDKVKDGRRNRTFILTFIRIPLAARNDCMQVMNNVVSENMLCAGIIGDTRDACDGDSGGPMVVFFRGTWFLVGLVSWGEGCGHLNNYGVYTKVGSYLKWIHSYIGERDVSLKSPKL
Vmax(mOD405/min) of rat Protein C activation in the presence of rat thrombin (chromogenic substrate S2366) [2]: TLD
Vmax(mOD405/min) of rat Protein C activation in the presence of rat thrombin (chromogenic substrate S2366) [3]: 3.1 mOD405/min
Vmax(mOD405/min) of rat Protein C activation in the presence of rat thrombin (chromogenic substrate S2366) [4]: 47.1 mOD405/min
